This note sets out measurements from US11168306 (University of California, dated 2021).

For orientation: EC50 (read off the curve) means the midpoint of the concentration-response curve. As a reminder, the Kd is a measure of binding affinity in units of concentration.

The target in assay [1] is T1, bovine serum albumin (bovine, UniProt P02769 25-607).
T1 construct: also called BSA
The assay can be described thus: phage-wrapping ELISA on BSA, anti-M13-HRP detection.

Assay [2] concerns the target T1, bovine serum albumin. Kind of assay: phage ELISA on BSA, anti-M13-HRP detection. (In general: In an ELISA, binding on a coated surface is turned into a signal by an enzyme label.)
In assay [3] the target is T2, prostate-specific membrane antigen (PSMA), dimeric form (UniProt Q04609 44-750, limits assumed).
T2 construct: Purified protein, construct not described; also called dimeric PSMA
Kind of assay: phage ELISA, PSMA dimer coated on the plate, [PSMA] = 11.1 nM, phage titrated, anti-M13-HRP detection. As for the experimental part: (§1) In a phage-based ELISA, specific wells of a 96-well microtiter plate (Nunc Maxisorp) were coated with 100 µL/well of a solution of PSMA (5.56 or 11.1 nM) monomer or dimer protein diluted in PBS. The plate was incubated for 1 h on a shaker at room temperature. The coating solution was removed, and the wells were blocked with 320 µL/well of 0.2% w/v solution of BSA in PBS for 30 min, and washed three times with 300 µL/well of wash buffer PT (0.05% TWEEN-20 in PBS). […] The wells on the ELISA plate were then incubated with the phage samples (100 µL/well) for 1 h. The wells were washed five times with PT and then incubated with horseradish-peroxidase-conjugated anti-M13 antibody (100 µL/well, 1:5000 dilution in PBT) for 30 min. The wells were washed three times with PT, and two times with PBS. The plate was then developed by incubating with HRP substrate solution (100 µL/well; 1 mg/mL o-phenylenediamine dihydrochloride and 0.02% w/v H_2O_2) in citric acid buffer (50 mM citric acid, 50 mM Na_2HPO_4, pH 5.0). Following an appropriate incubation time, HRP activity was measured spectrophotometrically at 450 nm using a microtiter plate reader (Bio-Tek).

Assay [4] addresses T2, prostate-specific membrane antigen …. Kind of assay: electrochemical impedance spectroscopy, virus-PEDOT film, Hill fit of ΔR/Ro against PSMA concentration; phage-2 alone, not wrapped with KCS-1. As for the experimental part: (§2) Biosensing with Virus-PEDOT Films. To explore whether these wrapped virus particles could be exploited to create virus-electrode biosensors with a higher sensitivity for PSMA, films of PEDOT were prepared on gold electrodes by electropolymerization in the presence of phage-2 (FIG. 2B). The PEDOT films formed in solution during electropolymerization associate with the negatively charged perchlorate ions from the electrolyte solution as it is deposited onto the gold electrode.[30] Polymerization of EDOT in the presence of negatively charged phage particles leads to incorporation of virus particles into the polymeric film as counterion dopants due to electrostatic interactions.[21] […] SEM imaging confirms incorporation of phage into the bioaffinity matrix; both filament-like and less extended features having dimensions consistent with phage integrated as rope-like bundles into the polymer at various angles to the film (FIGS. 4B-4C) were observed. The $KCS$-1 wrapper was then applied in vitro simply by exposing the resultant phage-2 film for a short time to an aqueous solution of the wrapper. For the biosensing measurements, only the highest affinity ligand combination of phage-2 wrapped with $KCS$-1 was used, and it was studied in comparison to phage-2 films.
(§3) where $Y=\Delta R/R_o$, [L] is the ligand concentration, and n is the Hill coefficient.[31] […]

Assay [5] has the same target. Kind of assay: phage-based wrapping ELISA, PSMA dimer coated (FIG. 3C). Here is the method: as §1, with “The plate was then developed by incubating with HRP substrate solution (100 µL/well; 1 mg/mL o-phenylenediamine dihydrochloride and 0.02% w/v H_2O_2) in citric acid buffer (50 mM citric acid, 50 mM Na_2HPO_4, pH 5.0).” left out
(§4) Phage-based wrapping ELISA: Phage (5 nM in 225 µL) and 2 µL of the purified cycloaddition reaction product, $KCS$-1/2 (308.7 µM) in water: acetonitrile (60:40), were mixed and serially diluted in PBT. […] Levels of phage binding were quantified as described above.

The target is the same in assay [6]. The assay can be described thus: electrochemical impedance spectroscopy, virus-PEDOT film, PBF-TWEEN buffer (FIG. 4F).
Assay [7] has the same target. Kind of assay: electrochemical impedance spectroscopy, virus-PEDOT film, Hill fit of ΔR/Ro against PSMA concentration; phage-2 wrapped with KCS-1. As for the experimental part:
as §2, §3

Another assay deals with T3, transferrin receptor (UniProt P02786 89-760, limits assumed).
T3 construct: Alternative target used as specificity control in impedance sensing; also called TfR
The assay can be described thus: electrochemical impedance of a virus-PEDOT film in PBF-Tween after exposure to TfR, ΔR/Ro against frequency; concentration not given.

The target in assay [8] is T4, PSMA on the surface of LNCaP cells (human, UniProt Q04609 1-750).
T4 construct: whole, on cells; Cells were glutaraldehyde-fixed on the plate in the cell-based ELISA and in suspension in the sandwich ELISA; also called cell surface PSMA; PSMA on LNCaP cells
Kind of assay: cell-based phage ELISA on fixed LNCaP cells, anti-M13-HRP detection, HRP activity as fold change.

Assay [9] addresses T4, PSMA on the surface of LNCaP cells. Described as above. This is another data set of the same source.
The target in assay [10] is T2, prostate-specific membrane antigen …. Kind of assay: phage ELISA, PSMA coated on the plate, [PSMA] = 13 nM, anti-M13-HRP detection.
For assay [11], the target named is T5, prostate-specific membrane antigen (PSMA), monomeric form (UniProt Q04609 44-750, limits assumed).
T5 construct: Purified protein coated on the ELISA plate; construct not described
The assay can be described thus: phage ELISA, PSMA monomer coated on the plate, [PSMA] = 11.1 nM, anti-M13-HRP detection. As for the experimental part: as §1

Assay [12] concerns the target T2, prostate-specific membrane antigen …. Kind of assay: electrochemical impedance of a virus-PEDOT film in PBF-Tween after exposure to PSMA, ΔR/Ro against frequency; concentration not given.
For assay [13] the target is unchanged. Kind of assay: phage-based wrapping ELISA, PSMA dimer coated (FIG. 3A). As for the experimental part:
as §1, with “The plate was then developed by incubating with HRP substrate solution (100 µL/well; 1 mg/mL o-phenylenediamine dihydrochloride and 0.02% w/v H_2O_2) in citric acid buffer (50 mM citric acid, 50 mM Na_2HPO_4, pH 5.0).” left out
as §4

In assay [14] the target is T1, bovine serum albumin. The assay can be described thus: phage-wrapping ELISA on BSA, anti-M13-HRP detection. The source holds these as a separate data set.

Read-outs that look alike come from different tables or passages of the source. Ends that are not written are not given here. * marks the point of attachment. Butanoyl(4-N3) = [N-]=[N+]=NCCCC(=O)*; Pent4ynoyl = C#CCCC(=O)*

T4 sequence (Q04609 whole entry): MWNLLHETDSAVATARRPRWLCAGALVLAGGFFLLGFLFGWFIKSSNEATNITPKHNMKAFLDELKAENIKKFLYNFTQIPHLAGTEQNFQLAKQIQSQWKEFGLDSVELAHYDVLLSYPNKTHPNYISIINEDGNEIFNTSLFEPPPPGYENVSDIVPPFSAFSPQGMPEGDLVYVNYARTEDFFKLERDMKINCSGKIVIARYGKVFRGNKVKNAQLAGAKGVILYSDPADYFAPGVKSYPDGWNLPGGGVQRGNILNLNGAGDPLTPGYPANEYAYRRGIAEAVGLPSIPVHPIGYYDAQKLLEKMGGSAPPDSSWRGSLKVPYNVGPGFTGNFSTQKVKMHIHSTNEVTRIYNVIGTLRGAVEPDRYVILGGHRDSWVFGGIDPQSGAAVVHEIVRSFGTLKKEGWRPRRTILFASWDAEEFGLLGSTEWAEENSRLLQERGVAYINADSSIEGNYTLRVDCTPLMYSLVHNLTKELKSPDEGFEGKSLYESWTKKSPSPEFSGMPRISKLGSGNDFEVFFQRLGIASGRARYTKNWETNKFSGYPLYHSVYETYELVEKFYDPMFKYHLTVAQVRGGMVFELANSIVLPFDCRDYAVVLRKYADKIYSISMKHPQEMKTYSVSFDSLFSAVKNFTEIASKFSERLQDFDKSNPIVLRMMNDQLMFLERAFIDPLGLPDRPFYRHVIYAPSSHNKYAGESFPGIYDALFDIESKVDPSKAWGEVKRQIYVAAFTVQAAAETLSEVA
T1 sequence (P02769 25-607 limits assumed): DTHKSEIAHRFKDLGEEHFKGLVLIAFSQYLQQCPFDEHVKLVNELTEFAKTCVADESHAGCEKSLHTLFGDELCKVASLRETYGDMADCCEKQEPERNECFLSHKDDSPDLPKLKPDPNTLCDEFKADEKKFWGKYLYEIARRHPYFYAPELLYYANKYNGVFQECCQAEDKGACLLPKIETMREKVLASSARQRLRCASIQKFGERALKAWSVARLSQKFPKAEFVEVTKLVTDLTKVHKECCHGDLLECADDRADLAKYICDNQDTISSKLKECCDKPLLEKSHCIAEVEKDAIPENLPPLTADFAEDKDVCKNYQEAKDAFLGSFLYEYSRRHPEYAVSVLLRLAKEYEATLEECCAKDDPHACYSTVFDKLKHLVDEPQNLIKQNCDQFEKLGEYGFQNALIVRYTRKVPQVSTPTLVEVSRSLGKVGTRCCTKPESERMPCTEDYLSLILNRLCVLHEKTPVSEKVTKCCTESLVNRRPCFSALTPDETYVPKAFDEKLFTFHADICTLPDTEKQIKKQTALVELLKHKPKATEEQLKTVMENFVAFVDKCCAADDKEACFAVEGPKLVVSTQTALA
T2 sequence (Q04609 44-750 limits assumed): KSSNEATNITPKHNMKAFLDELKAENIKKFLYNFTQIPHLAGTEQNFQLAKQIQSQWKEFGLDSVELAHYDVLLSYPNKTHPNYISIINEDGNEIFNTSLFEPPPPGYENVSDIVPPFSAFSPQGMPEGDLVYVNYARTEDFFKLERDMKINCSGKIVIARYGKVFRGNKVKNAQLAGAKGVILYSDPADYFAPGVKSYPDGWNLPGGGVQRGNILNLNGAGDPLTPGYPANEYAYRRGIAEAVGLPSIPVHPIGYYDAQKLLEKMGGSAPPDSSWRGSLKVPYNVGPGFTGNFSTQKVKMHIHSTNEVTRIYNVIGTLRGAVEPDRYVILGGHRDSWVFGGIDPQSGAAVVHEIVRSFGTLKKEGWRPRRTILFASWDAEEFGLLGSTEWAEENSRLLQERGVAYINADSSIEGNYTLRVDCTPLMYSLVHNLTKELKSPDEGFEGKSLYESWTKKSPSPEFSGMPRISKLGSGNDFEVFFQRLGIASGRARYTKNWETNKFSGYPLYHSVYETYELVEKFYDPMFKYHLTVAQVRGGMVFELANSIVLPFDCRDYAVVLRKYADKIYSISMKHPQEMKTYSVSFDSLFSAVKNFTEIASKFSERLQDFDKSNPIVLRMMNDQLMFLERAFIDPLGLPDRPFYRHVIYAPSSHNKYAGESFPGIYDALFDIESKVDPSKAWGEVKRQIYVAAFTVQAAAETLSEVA
T5 sequence (Q04609 44-750 limits assumed): as above
T3 sequence (P02786 89-760 limits assumed): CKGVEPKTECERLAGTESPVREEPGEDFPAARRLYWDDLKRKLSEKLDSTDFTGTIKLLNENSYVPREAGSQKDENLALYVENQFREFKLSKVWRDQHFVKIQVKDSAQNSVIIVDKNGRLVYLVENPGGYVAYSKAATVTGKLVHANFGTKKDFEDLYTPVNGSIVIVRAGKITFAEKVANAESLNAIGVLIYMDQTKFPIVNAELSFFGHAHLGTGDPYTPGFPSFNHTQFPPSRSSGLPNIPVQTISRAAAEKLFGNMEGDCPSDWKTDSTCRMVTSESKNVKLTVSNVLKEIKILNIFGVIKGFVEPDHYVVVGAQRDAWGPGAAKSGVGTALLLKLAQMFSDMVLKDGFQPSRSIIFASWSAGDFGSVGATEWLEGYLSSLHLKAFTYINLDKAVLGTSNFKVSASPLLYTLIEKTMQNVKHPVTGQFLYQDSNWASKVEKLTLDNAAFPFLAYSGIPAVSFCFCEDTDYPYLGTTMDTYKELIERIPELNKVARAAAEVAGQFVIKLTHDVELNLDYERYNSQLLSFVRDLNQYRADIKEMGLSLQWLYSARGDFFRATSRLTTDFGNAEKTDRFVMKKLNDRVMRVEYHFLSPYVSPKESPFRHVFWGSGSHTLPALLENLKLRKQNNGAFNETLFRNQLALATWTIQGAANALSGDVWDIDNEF

B1: phage-2 wrapped with a 1:1 (w/w) mixture of KCS-2 and KCS-1 (peptide)
chain: SECVEVFQNSCDW
peptide 1: Pent4ynoyl-KKKKKKKKKKKKKK-NH2
peptide 2: {Butanoyl(4-N3)}-KKKCALCEFLG-NH2
peptide 3: {Butanoyl(4-N3)}-KKKSECVEVFQNSCDW-NH2
modifications: cysteine pairing not given here; also: K14 chains clicked to ligand chains, triazole to a chain's N-terminus
notes: Whole M13 virion with both wrappers held electrostatically on the coat; also called 1:1 mixture of KCS-1 and KCS-2 wrapped on the surface of phage-2; not shown: M13 major coat protein P8, 50 amino acid residues; NCBI GI:402239556 named in an embodiment
As for B1, in the assay with bovine serum albumin [1], the binding result is “no binding (tested: 5 nM)”.

B2: phage-2 (M13 phage displaying PSMA ligand 2 as a fusion to P8) (peptide)
chain: SECVEVFQNSCDW
modifications: not fully specified; cysteine pairing not given here; also: displayed on M13 phage as fusion to P8 coat protein
notes: Whole M13 virion in the assay (free in ELISA, embedded in a PEDOT film for impedance sensing); also called peptide 2; peptide-2; not shown: M13 major coat protein P8, 50 amino acid residues; NCBI GI:402239556 named in an embodiment
As for B2, the binding result in the assay with bovine serum albumin [2] is recorded as “no binding (tested: 5 nM)”. Further, the “EC50 (read off the curve)” value in assay [3] is about 0.008 nM. Besides, the Kd in [4] is 54 nM.

B3: phage-2 wrapped with KCS-1 (peptide)
chain: SECVEVFQNSCDW
peptide 1: Pent4ynoyl-KKKKKKKKKKKKKK-NH2
peptide 2: {Butanoyl(4-N3)}-KKKCALCEFLG-NH2
modifications: not fully specified; cysteine pairing not given here; also: KCS-1 wrapper held on P8 coat electrostatically, triazole to a chain's N-terminus
notes: Whole M13 virion (free in ELISA, embedded in a PEDOT film for impedance sensing); the KCS-1 wrapper is held on the P8 coat electrostatically; also called Phage-2 film wrapped with KCS-1; not shown: M13 major coat protein P8, 50 amino acid residues; NCBI GI:402239556 named in an embodiment
Take B3: the “fold higher apparent affinity than phage-2 wrapped with KCS-2” value in assay [5] is 4 fold. In addition, the binding result is listed as “no binding (tested: 5 nM)” with bovine serum albumin [1] and “no binding” with transferrin receptor. Further, the “fold ΔR/Ro relative to films with unwrapped phage-2” value in [6] stood at 3 fold. Besides, in assay [7], the Kd came out at 33 nM.

B4: phage wrapped with P100NSP-2 (peptide)
peptide 1: SECVEVFQNSCDW
peptide 2: KKKKKKKKKKKKKKC
chain: AEGDDPAKAAFNSLQASATEYIGYAWAMVVVIVGATIGIKLFKKFTSKAS
modifications: Cys thiol joined to the maleimide of the PEG100 ligand; C-terminal carboxamide; N-terminal azide clicked to pentynoic acid, then HBTU-coupled non-specifically (carboxylates incl. side chains, Asp12 may be partly modified) to Mal-PEG100-NH2; C-terminal carboxamide
notes: mature; Whole M13 virion; K14-Cys held electrostatically on P8
Turning to B4, in [8], the binding result is recorded as “binds”.

B5: phage wrapped with P100NSP-P4-2 (peptide)
peptide 1: SECVEVFQNSCDW
peptide 2: KKKKKKKKKKKKKKC
chain: B4 chain
modifications: Cys thiol joined to the maleimide of the PEG100 ligand; C-terminal carboxamide; N-terminal azido-PEG4-carboxylic acid, clicked to pentynoic acid, then HBTU-coupled non-specifically to Mal-PEG100-NH2; C-terminal carboxamide
notes: as for B4
With B5, in assay [9], the binding result is recorded as “binds”.

B6: KO7 helper phage (other, M13 bacteriophage, UniProt P69541 24-73, looked up)
chain: B4 chain
notes: mature; Helper phage lacking a genetically encoded PSMA ligand; bought from GE Healthcare
Take B6: the binding result in assay [10] was “no binding (tested: about 5 nM)”. Consider AEGDDPAKAAFNSLQASATEYIGYAWAMVVVIVGATIGIKLFKKFTSKAS (other, M13 bacteriophage, UniProt P69541 24-73, looked up, not fully specified, mature; also called control phage) [Stop-4 phage (phagemid packaged by helper phage, no ligand displayed)], for which the binding result in assay [11] was “no binding (tested: last point just right of the 10 nM tick)”; in [12] it was “no binding”.

B7: phage wrapped with P100SP-2 (peptide)
peptide 1: SECVEVFQNSCDW
peptide 2: KKKKKKKKKKKKKKC
chain: B4 chain
modifications: Cys thiol joined to the maleimide of the PEG100 ligand; C-terminal carboxamide; N-terminal azide clicked to Mal-PEG100-alkyne (specific attachment); C-terminal carboxamide
notes: as for B4
With B7, in [9], the binding result is given as “binds”.

B8: phage wrapped with P100SP-P4-2 (peptide)
peptide 1: SECVEVFQNSCDW
peptide 2: KKKKKKKKKKKKKKC
chain: B4 chain
modifications: Cys thiol joined to the maleimide of the PEG100 ligand; C-terminal carboxamide; N-terminal azido-PEG4-carboxylic acid, clicked to Mal-PEG100-alkyne (specific attachment); C-terminal carboxamide
notes: as for B4
As for B8, in [9], the binding result is given as “binds”.

B9: phage-2 wrapped with KCS-2 (peptide)
chain: SECVEVFQNSCDW
peptide 1: Pent4ynoyl-KKKKKKKKKKKKKK-NH2
peptide 2: {Butanoyl(4-N3)}-KKKSECVEVFQNSCDW-NH2
modifications: not fully specified; cysteine pairing not given here; also: KCS-2 wrapper held on P8 coat electrostatically, triazole to a chain's N-terminus
notes: Whole M13 virion; the KCS-2 wrapper (K14 clicked to K3-ligand 2) is held on the P8 coat electrostatically, not covalently; also called Phage with chemically and genetically encoded ligands; not shown: M13 major coat protein P8, 50 amino acid residues; NCBI GI:402239556 named in an embodiment
In the case of B9, the “fold higher affinity than phage-2 without the ligand wrapper” value in assay [13] is about 50 fold. Also, in the assay with bovine serum albumin [14], the binding result is on record as “no binding (tested: 5 nM)”.
